Reference: paper PMC6684406 (Nature structural & molecular biology, 2019)

Target: T1, Pmt1 (protein O-mannosyltransferase 1), C-terminal 3×FLAG-tagged (S. cerevisiae, UniProt P33775 1-817, N-glycan on N390)
T1 sequence (looked up): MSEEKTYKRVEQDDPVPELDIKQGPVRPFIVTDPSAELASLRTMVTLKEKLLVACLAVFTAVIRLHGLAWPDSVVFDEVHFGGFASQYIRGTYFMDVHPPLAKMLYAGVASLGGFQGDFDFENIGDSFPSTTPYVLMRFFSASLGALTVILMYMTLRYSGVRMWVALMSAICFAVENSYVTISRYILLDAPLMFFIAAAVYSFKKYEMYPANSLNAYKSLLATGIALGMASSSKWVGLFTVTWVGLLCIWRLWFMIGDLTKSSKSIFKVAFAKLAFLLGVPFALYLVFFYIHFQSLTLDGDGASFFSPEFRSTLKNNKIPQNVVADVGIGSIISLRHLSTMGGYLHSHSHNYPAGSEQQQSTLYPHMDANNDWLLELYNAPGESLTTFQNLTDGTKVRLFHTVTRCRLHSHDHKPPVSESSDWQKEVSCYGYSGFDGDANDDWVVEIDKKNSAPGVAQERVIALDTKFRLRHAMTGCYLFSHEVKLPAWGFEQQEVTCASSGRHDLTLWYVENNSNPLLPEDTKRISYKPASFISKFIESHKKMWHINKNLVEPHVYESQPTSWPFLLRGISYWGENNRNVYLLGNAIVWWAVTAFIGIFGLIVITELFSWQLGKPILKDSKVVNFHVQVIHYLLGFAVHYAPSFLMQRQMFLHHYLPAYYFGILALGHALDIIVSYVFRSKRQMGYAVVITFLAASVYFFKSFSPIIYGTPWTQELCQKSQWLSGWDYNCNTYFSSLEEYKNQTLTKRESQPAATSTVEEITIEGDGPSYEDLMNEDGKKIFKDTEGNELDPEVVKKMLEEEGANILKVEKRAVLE
Assay: cryo-EM structure

stoichiometry N: 1
B1: Pmt2 (protein O-mannosyltransferase 2) (enzyme, S. cerevisiae, UniProt P31382 1-759, looked up)
chain: MSSSSSTGYSKNNAAHIKQENTLRQRESSSISVSEELSSADERDAEDFSKEKPAAQSSLLRLESVVMPVIFTALALFTRMYKIGINNHVVWDEAHFGKFGSYYLRHEFYHDVHPPLGKMLVGLSGYLAGYNGSWDFPSGEIYPDYLDYVKMRLFNASFSALCVPLAYFTAKAIGFSLPTVWLMTVLVLFENSYSTLGRFILLDSMLLFFTVASFFSFVMFHNQRSKPFSRKWWKWLLITGISLGCTISVKMVGLFIITMVGIYTVIDLWTFLADKSMSWKTYINHWLARIFGLIIVPFCIFLLCFKIHFDLLSHSGTGDANMPSLFQARLVGSDVGQGPRDIALGSSVVSIKNQALGGSLLHSHIQTYPDGSNQQQVTCYGYKDANNEWFFNRERGLPSWSENETDIEYLKPGTSYRLVHKSTGRNLHTHPVAAPVSKTQWEVSGYGDNVVGDNKDNWVIEIMDQRGDEDPEKLHTLTTSFRIKNLEMGCYLAQTGNSLPEWGFRQQEVVCMKNPFKRDKRTWWNIETHENERLPPRPEDFQYPKTNFLKDFIHLNLAMMATNNALVPDPDKFDYLASSAWQWPTLNVGLRLCGWGDDNPKYFLLGTPASTWASSVAVLAFMATVVILLIRWQRQYVDLRNPSNWNVFLMGGFYPLLAWGLHYMPFVIMSRVTYVHHYLPALYFALIILAYCFDAGLQKWSRSKCGRIMRFVLYAGFMALVIGCFWYFSPISFGMEGPSSNFRYLNWFSTWDIADKQEA
modifications: N-glycan on N131
